# In patent publication US20030166587:
# Positions count from the first letter of the chain named.
# T1: IKK-phosphorylated IκBα in the IκBα/NF-κB complex
# T1 chain: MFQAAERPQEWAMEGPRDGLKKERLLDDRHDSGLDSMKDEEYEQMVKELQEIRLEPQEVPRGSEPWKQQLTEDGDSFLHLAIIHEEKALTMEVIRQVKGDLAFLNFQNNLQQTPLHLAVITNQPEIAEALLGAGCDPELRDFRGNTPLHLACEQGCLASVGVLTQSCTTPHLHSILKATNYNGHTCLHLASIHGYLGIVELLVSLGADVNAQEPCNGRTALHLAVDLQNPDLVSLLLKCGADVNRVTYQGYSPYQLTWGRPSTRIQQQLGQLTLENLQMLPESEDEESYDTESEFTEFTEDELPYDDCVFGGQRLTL
# B1: human β-TrCP with a deletion of the F box region residues 122-168, FLAG-tagged (protein)
# chain: MDPAEAVLQEKALKFMNSSEREDCNNGEPPRKIIPEKNSLRQTYNSCARLCLNQETVCLASTAMKTENCVAKTKLANGTSSMIVPKQRKLSASYEKEKELCVKYFEQWSESDQVEFVEHLISQMCHYQHGHINSYLKPMLQRDFITERMVRTDSLWRGLAERRGWGQYLFKNKPPDGNAPPNSFYRALYPKIIQDIETIESNWRCGRHSLQRIHCRSETSKGVYCLQYDDQKIVSGLRDNTIKIWDKNTLECKRILTGHTGSVLCLQYDERVIITGSSDSTVRVWDVNTGEMLNTLIHHCEAVLHLRFNNGMMVTCSKDRSIAVWDMASPTDITLRRVLVGHRAAVNVVDFDDKYIVSASGDRTIKVWNTSTCEFVRTLNGHKRGIACLQYRDRLVVSGSSDNTIRLWDIECGACLRVLEGHEELVRCIRFDNKRIVSGAYDGKIKVWDLVAALDPRAPAGTLCLRTLVEHSGRVFRLQFDEFQIVSSSHDDTILIWDFLNDPAAQAEPPRSPSRTYTYISR
# B2: human β-TrCP, FLAG-tagged (protein)
# chain: MDPAEAVLQEKALKFMNSSEREDCNNGEPPRKIIPEKNSLRQTYNSCARLCLNQETVCLASTAMKTENCVAKTKLANGTSSMIVPKQRKLSASYEKEKELCVKYFEQWSESDQVEFVEHLISQMCHYQHGHINSYLKPMLQRDFITALPARGLDHIAENILSYLDAKSLCAAELVCKEWYRVTSDGMLWKKLIERMVRTDSLWRGLAERRGWGQYLFKNKPPDGNAPPNSFYRALYPKIIQDIETIESNWRCGRHSLQRIHCRSETSKGVYCLQYDDQKIVSGLRDNTIKIWDKNTLECKRILTGHTGSVLCLQYDERVIITGSSDSTVRVWDVNTGEMLNTLIHHCEAVLHLRFNNGMMVTCSKDRSIAVWDMASPTDITLRRVLVGHRAAVNVVDFDDKYIVSASGDRTIKVWNTSTCEFVRTLNGHKRGIACLQYRDRLVVSGSSDNTIRLWDIECGACLRVLEGHEELVRCIRFDNKRIVSGAYDGKIKVWDLVAALDPRAPAGTLCLRTLVEHSGRVFRLQFDEFQIVSSSHDDTILIWDFLNDPAAQAEPPRSPSRTYTYISR
# B3: mouse β-TrCP, FLAG-tagged (protein)
# chain: B2 chain with L52I, A60T, T73A, G224E, N295S, T336A, V498M, Q553H
# Biological target: T1, IKK-phosphorylated IκBα in the …
row,Protein,in vitro ubiquitination of pIκBα in the presence of E1 and E2 (UBC5C)
1,B1,"failed to promote ubiquitination (lanes 7 and 8), in spite of its binding capacity"
2,B2,"the wild type β-TrCP proteins facilitated the ubiquitination of pIκBα, but not of the non-phosphorylated IκBα"
3,B3,"the wild type β-TrCP proteins facilitated the ubiquitination of pIκBα, but not of the non-phosphorylated IκBα"
